Data from patent US20190016796A1 (UNIVERSITAT ZURICH, published 2019).

Tests used:
murine interleukin-2 = target: T1, murine interleukin-2 (mouse, UniProt P04351 21-169); assay: SPR, NARA1 amine-coupled to a GLM chip, mouse IL-2 injected at 10 to 0.041 nM
T1 construct: also called mouse IL-2; mIL-2
T1 sequence (looked up): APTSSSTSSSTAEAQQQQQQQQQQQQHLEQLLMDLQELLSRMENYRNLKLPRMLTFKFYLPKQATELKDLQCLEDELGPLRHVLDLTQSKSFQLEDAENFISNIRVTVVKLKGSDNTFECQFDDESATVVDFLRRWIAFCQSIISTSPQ

human interleukin-2 = target: T2, human interleukin-2 (human, UniProt P60568 21-153); assay: SPR, antibody amine-coupled to GLM chip, hIL-2 as analyte (100 nM, three-fold dilutions)
T2 construct: Teceleukin is named only for the in vivo treatments; also called hIL-2; human IL-2
Method: For this experiment an amine coupling GLM chip was used. The activation of the carboxylic acid groups in the chip was done using a mix of 1-ethyl-3-3-dimethylaminopropyl carbodiimide hydrochloride (EDC at 0.2 M) and sulfo N-hydroxysulfosuccinimides (s_NHS at 0.05M) at 30 μl/min for 420 seconds (s). […] Deactivation was followed adding ethanolamine HCl at 30 μl/min for 300 s. Finally human IL-2 was added at different concentrations (starting from 100 nM and followed by three-fold dilutions) at 100 μl/min, 600 s association, and 240 s dissociation.
In order to characterize the binding properties of the anti-human IL-2 mAbs the binding to human interleukin-2 was tested with surface plasmon resonance binding assays.

T2 sequence (P60568 21-153 limits assumed): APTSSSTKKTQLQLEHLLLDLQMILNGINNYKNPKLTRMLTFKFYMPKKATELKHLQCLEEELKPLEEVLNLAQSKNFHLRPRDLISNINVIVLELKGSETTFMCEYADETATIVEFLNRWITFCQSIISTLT

B1: monoclonal antibody NARA1 (antibody, mouse IgG2a, kappa, V domains shown)
VH: QVQLQQSGAELVRPGTSVKVSCKASGYAFTNYLIEWVKQRPGQGLEWIGVINPGSGGTNYNEKFKGKATLTADKSSSTAYMQLSSLTSDDSAVYFCARWRGDGYYAYFDVWGAGTTVTVSS
VL: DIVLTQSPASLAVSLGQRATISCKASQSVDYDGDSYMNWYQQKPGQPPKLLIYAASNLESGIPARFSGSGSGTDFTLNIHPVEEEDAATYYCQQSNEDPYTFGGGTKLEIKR
notes: also called hIL-2 mAb
In the case of B1, the binding result (murine interleukin-2) is reported as “no binding (tested: 10 nM)”, the Kd (human interleukin-2) is reported as 1.2 nM and the koff (human interleukin-2) is reported as 2.08e-05 s⁻¹.
